Results on 22 sequences are retold here after the DeepSol protein solubility set.

The nature of the data set: soluble on expression in E. coli; label from the status in PepcDB or PDB records.
Regarding “MLRGLRIIAENKIGVLRDLTTIIAEEGGNITFAQTFLIKHGEHEGKALIYFEIEGGDFEKILERVKTFDYIIEIEEEESFERVFGKRVIILGGGALVSQVAIGAISEADRHNLRGERISVDTMPVVGEEEIAEAVKAVSRLHRAEVLVLAGGIMGGKITEEVKKLRKSGIRVISLSMFGSVPDVADVVISDPVMAGTLAVMHISEKAKFDLDRVKGRRI”, the “soluble on expression in E. coli” value is recorded as “soluble”.
Consider “IDGIFIMDAEGHYLDVNPAICSAIGYTRDEFLALDWGVLSRGVDSGWAAASLARIVGGEPLREERTVWTRNGDQLTVELSAHLLPD”, for which the “soluble on expression in E. coli” value is reported as “not soluble”.
For “MENSDVINFSCLEKELHSALQADRKYQRENDAKFRALNQKVASYEEFRDIVLASHLKPLDRNDISGSPRKQPWNPVACRTNYVCASSEQVQPQLSEVQPRSASEFIRDWRRFAGCSFEKYSLLVSLGGEALQKIFSTEIGLGLLGEFLLILSQCLKSGDEDRVTGVLDGLSKTGRFSINLSLLSQAEQEACEELFNKLKVAAGECHPYKDNSNTSVVCEAGLTHMEDNKTDITTTLKELAGKYGTEK” the value was “not soluble”.
In the case of “MKLVNVTNSYKQLVNKQLENTDAYFVKVYSAGNTTAVYSEAAHHVEVLIMNKNRRIRPTEVKEILAKLLKRLPKEAYDPDEISIIELNHVTEVSVPLKVSLMEN” it was “not soluble”.
For “MNKILIAAASSGAGKTTVTLGIMQALKKRGFAVQPFKVGPDYIDTNYHQAITGVASINLDSFLIDDDEMLASLFQKHGESADISVIEGVMGLFDGLGTDRDNASTSFIAKCTKTPVILVVDGKAISTSAAAIVDGFNRFDPELKIAGVIINRVASENHFSLIKGAIERYTDVPVLGYLPKNAAVALPERHLGLVPQEEMTELEAKWELLSDLITTHVDLDKLLEISKSSENLSTSKAQMKVADFSGLRVAYALDAAFHFYYQDNLDLIRLTGAELIPFSPLEDNEVPEADFIYIGGGFPEIFAKQLNDNRSMRKSILAAHEKGIPIYAECGGLMYLGSSLEMEGKQYEMVGVFNGISKMTTRLRKFGYCIAEPLEETLIGKKGMSIRGHEFHHSVFETTETACMKLSKKRDGEIVKEWRGGYQKGNTFASYLHIHFYQNPAILMQMFGAGKRLEHHHHHH” the value was “soluble”.
In the case of “MGSDKIHHHHHHMKDWWQATFPNGRQTLIITDAKGYPVEISYGEKGKGKPLILLHGMGSWSYNWRHSVTELSKYFRVICFDAKGFGFSEKPLSRREHNGHQVIEFQRIIQALCDEPAVIVAESLGGLVALALAQENPQLIGQLVVVNVPVFAKRLPHWAMGLLAQTPLEIIQTIDSLRLAYFFAPLLREIMAIERRGVLFDPSILTKEDVYWITYPFIEFPGTLVKVAEELQIAAREIENWQADKPNMLTKIQNKLSIIKCPTLVLWGDQDSWFPATHGEKLHQHIPNSKLKILSNCYHDASTGASKELNAAILEFLRDGNTVLRSLDS”, the “soluble on expression in E. coli” value is “not soluble”.
For “MEPGVDGARKQIAEVVAERIERLILDGVLKAGQALPSERRLTEKLGVSRTALREGLRVLWARQIIHTAQGKGSYVAQISQVDAGPLVHLFNSQPRTLYDLLEVRALLESESARLAAIRGTDADFIMIRRRYDEMLAAHGRETDSATHAHLDHAFHLAICQASHNAVLVHTLQSLTDLLLGSVFACVNNLYHREPHKRHIDQQHERLFLAVLAREPEQAHQAARAHVDSVRQSLAEIEQEEQRLVRATLRLEGWV” the value was “not soluble”; for “MRILVNLILFSLIPLAFSNENSSSYLIARPLIFETQLKNINDNVNLHCTSWRFAAETNNLAPWKTIPAECADYVKDYLMGEGYVVDVERVSEEAKVYASSFESNGDGKDIWIFDIDETLLSNLPYYMEHGCGLEVFDHSKFDMWVEKGIAPAIAPSLKLYQKVIHLGYKVILLTGRRENHRVITVENLRNAGFHNWDKLILRSLDDRNKTATMYKSEKREEMVKEGYRIRGNSGDQWSDLLGSAMSERSFKLPNPMYYIP”, “soluble”; for “MGHHHHHHSHMYSLNQEIKAFSRNNLRKQCTRVTTLTGKKIIETWKDARIHVVEEVEPSSGGGCGYVQDLSSDLQVGVIKPWLLLGSQDAAHDLDTLKKNKVTHILNVAYGVENAFLSDFTYKSISILDLPETNILSYFPECFEFIEEAKRKDGVVLVHCNAGVSRAAAIVIGFLMNSEQTSFTSAFSLVKNARPSICPNSGFMEQLRTYQEGKESNKCDRIQENSS”, “not soluble”.
In the case of “MAHHHHHHMTAHVDRCVFFSKMGACRHGDQCTKLHYRPDTSPTVLFPLMYPNPHAIEHIKDREWNFELDKKYLKKHFEHFYKEVWRTFMEFGRIAELRVVSNLGDHLLGNVYIRFEDPQVATRIVKELRGKKLNDIIVLPELSPVTNFAEACCKEDLENRCQRGEQCNYLHIMKVSRRLLEKLEKEQSKYWKKKERRHEHSSSDRKRSRSRSPADTRW” it was “soluble”.
“MSLKLSDPGPIFYGHRRVGHNGRYFHCLKFRTMAMNGDEMLRQYLAANPEAAEEWRATRKLKNDPRVTAVGAVLRKLSLDELPQLLNIIRGEMSVVGPRPVVDEELSYYENAAAYYLSTRPGLTGLWQISGRNDVSYKTRVAFDTQYVQNWSMRQDVFIIVKTIPAVCMSRGSYEGHHHHHH”: the “soluble on expression in E. coli” value is reported as “soluble”.
In the case of “MVNREIVMDYILSCLQDLVENGVEIKPDSDLVNDLGLESIKVMDLLMMLEDRFDISIPINILLDVKTPAQLMETLLPWLENK” it was “not soluble”; in that of “MNYELMEPAKQARFCVIWLHGLGADGHDFVDIVNYFDVSLDEIRFIFPHADIIPVTINMGMQMRAWYDIKSLDANSLNRVVDVEGINSSIAKVNKLIDSQVNQGIASENIILAGFSQGGIIATYTAITSQRKLGGIMALSTYLPAWDNFKGKITSINKGLPILVCHGTDDQVLPEVLGHDLSDKLKVSGFANEYKHYVGMQHSVCMEEIKDISNFIAKTFKI”, “not soluble”; in that of “MPLPPHLSDRVVALQPSLTLAISARAKALQQEGRDICSLSAGEPDFNTPEFIIDATVKALRDGITRYGPAAGDPELREAIATKLSKENTVPTNAEQVLVTNGGKQAIFNLFQVILNPGDEVLIPAPYWLSYPEMARLAGAKVTTLPSTPENGFCLDLNNLEASIGPKTRLLLLNSPGNPTGRVMARKELETLADLLRDHPQILVMSDEIYEFILEEGQQHYSFSAIAPDLSNRTFIVNGFAKGWAMTGWRLGYLAGPADAVKAATALQSQSTSNVCSFAQRGALAALQGSRECVKKMVKSYNTRRELLTSGLLSLEGMSLVPPKGAFYAFPKLPPESLDSVSFCEQALENHGLAMVPGAAFGDDSCVRLTCAVSPETICDGLERLRKALKQS”, “not soluble”.
Turning to “MKPTVNVVFNAHHPKDTQPLDKFFDKELKDTHHLDITVGYISEKSLQYLLLIAGTHPDLTITLTCGMHAREGMTAAQLHHARVLHDYLSDHDRGGVFVIPRLRYHGKIYLFHKNQHTDPIAYIGSANLSAIVPGYTSTFETGVILDPAPEDLVLHLNRDVVPLCVPIDTAHVPIIKDQESPMKHVAEATAVSTSDVVAIMSSPFTYSFDLKLKATASSNLNAHNSGGGARKQKNGSFLARNWYEGEIIVGVETTRLPGYPQNKSEFTAVTDDGWSFVCKISGGNGKNLRSKGDLSILGTWLKSRFIEQGALEYGEDATQENIDRFGRTHMTMRYHPDFDVWSFDLSQTPKP”, the “soluble on expression in E. coli” value is on record as “not soluble”.
For the sequence “MAHHHHHHMAAVTPPTSRALPLEATAIFPPQGSRELDRGAPPLESLSCTKRATAAQHIRGGEGRGAAPCLYIQTVSGSLLPVVLSPSPTHSPIPQRCEQYRDAYANVTICIDTEERSIQRLETFGGGTTITAILCKRYFPPFQ”, the “soluble on expression in E. coli” value is recorded as “not soluble”.
Turning to “WLDHVQNLVPGLDRQGLLEACEFARESEQRAIAAQNSWAEGTSSFQTGLEIAEILADLKLDQESLVAAVIYRGVREGKITLEAVNKHFGPVVAKLIEGVLRMAAISASLNPRHSMVLGTQAQVENLRKMLVAMVDDVRVALIKLAERTCAIRAVKNADEEKRHRVAREVFDIYAPLAHRLGIGHIKWELEDLSFRYLEPDQYKQIAKLLHERRLDREQYIANVMSQLKEALAATGVQADLSGRAKHIYSIWRKMQRKGLDFSQIYDVRAVRVLVPEMRDCYTALGIVHTLWRHIPKEFDDYIANPKENGYRSLHTAVIGPEGKVLEVQIRTHSMHEEAELGVCAHWRYKGTDVKASSNHYEEKISWLRQVLEWHEELGDIGGLAEQLRVDIEPDRVYVFTPDGHAIDLPKGATPLDFAYRVHTEVGHNCRGAKINGRIVPLNYSLQTGEQVEIITGKHSGPSRDWLNSNLGYVTTSRARAKIVHWFKLQARDQNVAAGKALIERELSRLALPPVDFDRLAEKANVRTAEDMFAALGAGDLRLAHLVNYAQQLVEPDRDSEQLELIPRKPSKIGHGKRGDVQIQGVGNLLTQMAGCCQPLPGDPIVGYITLGRGVTIHRQDCATALQLAGREPERMIQVSWGPEPVRTYPVDIAIRAYDRSGLLRDVSQVLLNERINVLAVNTRSNKEDNTATMQLTIEIPGLDALGRLLARVSQLPNIIEARRNR”, the “soluble on expression in E. coli” value was “not soluble”.
For “MLSLNLPVFDTKINVRNGKNVIFDVIRKRYVALTPEEWVRQHFVHFLIAHKGYPNALLANEVMVKLNGTTKRCDTVLYRRDLSARMIVEYKAPHIEITQAVFDQITRYNMVLKVDYLIVSNGMQHYCCRMDYAHQSYTFLQDIPDYNAL” the value was “not soluble”; for “MAENFVVVDGGVVAPKGFKANGHKDRKYGAALIYSEADAVAAGVFTTNKVYAHPVALSKDTLVNNNVFRAIVANSGNANCFTKGGMEDAELLVKKAAELLKIPENQVLSASTGVIGRKMPMDIISLEVERAFENITMESSNENASKAIMTTDAFPKTVAVEFEVNGKSVRIGGIAKGAGMIAPNMLHATMLGFITTDIEISKEDLTNSLQKATDESFNNAVVDGDMSTNDTVYVLANAQSGVKYTDCKEEFDHALTYVSKELAKMIVSDGEGAKKLIEATVFGAETKEDAKKASMSIVRSLLLKTAVFGADPNWGRIAAAVGYSGAEMDMNNFDIIISDISSEKQAILVKAGEQIADCGTPELKLAEEIMKEDKIKIIVDLKMGSFENTAFGCDLGYDYVKINSEYTTLEHHHHHH”, “not soluble”.
In the case of “GAMSYSLYGTTLEQQYNKPLSDLLIRCINCQKPLSPEEKQRHLDKKQRFHNIRGRWTGRCMSCSRSSRTRRETQL”, the “soluble on expression in E. coli” value was “soluble”.
For “PKLPTISQFNVTPFLAFISPDYKTHIDPNEVESVFEVPANHILNPNKLYSSKFELKRSSHRVFAIPYRQHFIWGMTAQIIESMQKHIISG” the value was “not soluble”; for “MAHHHHHHMSVKNTFGTQAAKALCANLYTNWLSEDENVERIRDLLNRVLTLSATDQHSEMGAKNAASMTTAAAAAAGDKKGKAAGADALGNGARHSDPAVGLSTSSAAIHGNADRAQSPQPSPPQKSDKSAAALAADDRTPSPIQPSTSPTLIARFPGGVDELDYPHRAGSPVVTPVSPQPKPIVDPSAPLPHVGTGSLSPHGVHSLGSPRLDTTLNAAMVSGDLTIPLDASSTLSTTARESTTRFLHTSGSFAVTPPANLKQATLDEIPCFYSKRESRGLQIEVDVEEAQELSRLLEKNDPVKKTVWVFGDISSKVFKVPIWYKEALFKDIATRSGLDAATADTLTAAQIRTVYNDVYAPLSVSRRLYELICTHPKKEFITLSDLEGMGKYLVAAHPGLQFLQQPEFQEYYWHTVAVRIMYMLERQQCGRIYWRDFDRSDLPERMMELDAKDVNLVLDYFSYEHFYVLYCKFWELDTDRDLLVGFEDLCNYGQGSVVTGVIKRVVEGYGRPLSSGVPGKMDFEDFVYFCLSEEDKNSEPAVLYWFKVLDTDEDGVLSGYEMMQFFEENQQRFLEFSDSPEGDIAYEDTVCQMLDMVGFDRVKVRKYGVTLGDLRSCPTPANFFNMIFNASKFLLFEHRDPFGEHQMRLRVEKTEWDRFARAEYDRMAAEAQ”, “not soluble”.
